Data on one substance can be found in publication PMC3234751.

For the assay, the target named is GFP-tagged IQGAP1 lacking IQ domains (IQGAPΔIQ) (UniProt P46940). The assay is described as follows: co-IP.
Sequence of UniProt P46940 (P46940 whole entry, stated change not applied, the tested form may be a part): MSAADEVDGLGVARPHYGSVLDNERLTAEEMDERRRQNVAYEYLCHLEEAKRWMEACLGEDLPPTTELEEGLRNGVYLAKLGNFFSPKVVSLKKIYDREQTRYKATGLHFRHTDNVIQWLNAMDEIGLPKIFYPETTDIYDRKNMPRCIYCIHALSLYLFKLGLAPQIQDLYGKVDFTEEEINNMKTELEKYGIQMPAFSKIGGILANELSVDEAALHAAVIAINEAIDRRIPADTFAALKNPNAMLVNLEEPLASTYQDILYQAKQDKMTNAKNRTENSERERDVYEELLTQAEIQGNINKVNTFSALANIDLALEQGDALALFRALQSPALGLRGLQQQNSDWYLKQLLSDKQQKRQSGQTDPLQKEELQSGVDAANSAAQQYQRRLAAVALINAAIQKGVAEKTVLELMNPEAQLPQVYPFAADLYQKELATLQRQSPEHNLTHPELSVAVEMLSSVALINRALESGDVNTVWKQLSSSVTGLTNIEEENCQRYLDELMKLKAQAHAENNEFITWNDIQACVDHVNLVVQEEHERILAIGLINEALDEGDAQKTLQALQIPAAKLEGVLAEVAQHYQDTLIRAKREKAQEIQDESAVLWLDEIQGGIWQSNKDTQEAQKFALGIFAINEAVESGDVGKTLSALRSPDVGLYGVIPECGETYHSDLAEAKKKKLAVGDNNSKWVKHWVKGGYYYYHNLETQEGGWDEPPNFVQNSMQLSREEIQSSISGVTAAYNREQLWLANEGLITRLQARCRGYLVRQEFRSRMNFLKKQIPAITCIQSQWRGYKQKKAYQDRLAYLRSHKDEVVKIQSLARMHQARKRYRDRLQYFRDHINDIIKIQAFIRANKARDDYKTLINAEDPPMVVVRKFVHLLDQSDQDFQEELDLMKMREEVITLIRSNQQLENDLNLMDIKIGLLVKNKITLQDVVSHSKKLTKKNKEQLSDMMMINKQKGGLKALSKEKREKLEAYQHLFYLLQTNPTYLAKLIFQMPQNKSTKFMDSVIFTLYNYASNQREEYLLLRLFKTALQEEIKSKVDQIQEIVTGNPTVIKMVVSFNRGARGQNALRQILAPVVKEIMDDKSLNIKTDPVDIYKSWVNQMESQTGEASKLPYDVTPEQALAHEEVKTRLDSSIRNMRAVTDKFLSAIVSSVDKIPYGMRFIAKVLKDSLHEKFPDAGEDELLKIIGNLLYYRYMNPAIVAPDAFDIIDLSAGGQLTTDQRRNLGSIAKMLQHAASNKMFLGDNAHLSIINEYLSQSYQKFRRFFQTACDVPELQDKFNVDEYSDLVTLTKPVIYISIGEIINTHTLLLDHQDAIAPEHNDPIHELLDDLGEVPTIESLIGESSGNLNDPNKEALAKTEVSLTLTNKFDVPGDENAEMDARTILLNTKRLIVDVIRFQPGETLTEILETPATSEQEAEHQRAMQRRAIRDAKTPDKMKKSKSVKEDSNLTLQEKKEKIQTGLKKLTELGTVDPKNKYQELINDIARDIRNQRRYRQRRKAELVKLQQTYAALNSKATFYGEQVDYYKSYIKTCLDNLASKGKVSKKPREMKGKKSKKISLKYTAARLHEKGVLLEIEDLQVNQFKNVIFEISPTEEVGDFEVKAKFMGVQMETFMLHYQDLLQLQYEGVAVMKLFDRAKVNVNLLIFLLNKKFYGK

For “AKAP220, endogenous in COS cells (natural protein)”, the fold enhancement in binding (densitometry) turned out to be 3.6 fold.
